Experimental data taken from publication PMC3163267, “Structure and Organisation of SinR, the Master Regulator of Biofilm Formation in Bacillus subtilis” (Journal of Molecular Biology, 2011).

T1: SinR (Bacillus subtilis, UniProt P06533 1-111)
T1 sequence: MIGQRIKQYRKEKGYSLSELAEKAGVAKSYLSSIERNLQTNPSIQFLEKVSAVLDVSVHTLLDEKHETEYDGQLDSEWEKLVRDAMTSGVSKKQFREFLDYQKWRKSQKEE

B1: SinR (natural protein, B. subtilis, UniProt P06533 1-111, looked up)
chain: T1 sequence
notes: After cleavage with human rhinovirus 3C protease a residual N-terminal Gly-Pro-Ala is expected to remain; Tetramer by SEC-MALLS; also called intact SinR; full-length SinR; not shown: His6, N-terminal, cleaved
B2: SinI (natural protein, B. subtilis, UniProt P23308 1-57, looked up)
chain: MKNAKQEHFELDQEWVELMVEAKEANISPEEIRKYLLLNKKSAHPGPAARSHTVNPF
notes: Cloned into the same modified pET28 vector and cleaved as described for SinR, so a residual N-terminal Gly-Pro-Ala probably remains (surmised); Dimer by SEC-MALLS
B3: SinR(74–111) (domain or fragment, B. subtilis, UniProt P06533 74-111, looked up)
chain: LDSEWEKLVRDAMTSGVSKKQFREFLDYQKWRKSQKEE
notes: SinR, Bacillus subtilis, C-terminal domain, residues 74–111; A selenomethionine form was also crystallised; also called C-terminal domain of SinR; not shown: His6, N-terminal, cleaved
B4: tandem repeat SinRBM duplex (dsDNA)
DNA 1: GTCGTTCTCTCGTTCTCTATAA
DNA 2: TTATAGAGAACGAGAGAACGAC
B5: single-site SinRBM duplex (dsDNA)
DNA 1: AATTTTTCGTTCTTTATAAAAT
DNA 2: ATTTTATAAAGAACGAAAAATT

Legend:
[1] = molecular target: the molecule itself; assay: SEC-MALS; SEC-MALLS on Superdex 75 HR 10/30; 25 mM Tris pH 8.5, 200 mM NaCl, 0.5 mM EDTA; 100 µl samples of 1 mg/ml protein or an equimolar mixture of SinR and SinI
[2] = molecular target: B1; assay: as above; conditions: both partners purified
[3] = molecular target: T1, SinR; assay: fluorescence anisotropy; FA: 10 mM Hepes pH 8.0, 100 mM NaCl, 1 mM DTT, 1 mM EDTA, 5 nM HEX-DNA, 25 C; SPR: 10 mM Hepes pH 8.0, 150 mM NaCl, 3 mM EDTA, 0.05% P20; conditions: protein: recombinant; tags: N-terminal Gly-Pro-Ala left after 3C cleavage of His6 tag; chain copies: 4; label: 5' HEX on one strand; 22 bp

| Binder | stoichiometry N [1] | stoichiometry N [2] | Kd [3] |
| --- | --- | --- | --- |
| B1 | 4 | – | – |
| B2 | 2 | 1 | – |
| B3 | 4 | – | – |
| B4 | – | – | 3.7 µM |
| B5 | – | – | 2.8 µM |
